Measured values taken from patent US20170283509A1 (University of Texas, published 2017).
Values belong to the binder of their own block, whether it stands above or below them.

B1: Anterior Gradient 2 (AGR2), endogenous protein from PDAC cell lysate (SU86.86) (ligand)
chain: RDTTVKPGAKKDTKDSRPKLPQTLSRGWGDQLIWTQTYEEALYKSKTSNKPLMIIHHLDECPHSQALKKVFAENKEIQKLAEQFVLLNLVYETTDKHLSPDGQYVPRIMFVDPSLTVRADITGRYSNRLYAYEPADTALLLDNMKKALKLLKTEL
notes: Endogenous AGR2 of human pancreatic cancer cell lysates, used in IP and western blot; also called hAG-2; Gob-4

Legend:
[1] = target: T1, C4.4A (LYPD3), endogenous protein of PDAC cells (human, UniProt O95274 31-326); experiment: co-immunoprecipitation from SU86.86 lysate with commercial anti-AGR2 antibody, western blot
T1 construct: On PDAC cells in the functional assays
T1 sequence: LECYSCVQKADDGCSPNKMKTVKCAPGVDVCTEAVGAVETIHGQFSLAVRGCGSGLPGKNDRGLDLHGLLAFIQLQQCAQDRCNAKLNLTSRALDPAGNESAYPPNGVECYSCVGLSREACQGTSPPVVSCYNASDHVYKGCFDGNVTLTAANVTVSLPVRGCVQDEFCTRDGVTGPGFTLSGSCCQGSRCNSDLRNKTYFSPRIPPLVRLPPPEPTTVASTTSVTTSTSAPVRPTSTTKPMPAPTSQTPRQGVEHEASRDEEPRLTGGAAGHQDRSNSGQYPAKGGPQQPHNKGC

[2] = target: T2, dystroglycan-1 (DAG-1) (UniProt Q14118 30-895, limits assumed); experiment: as above
T2 construct: Endogenous protein of a PDAC cell lysate; also called Dystoglycan-1
T2 sequence (looked up): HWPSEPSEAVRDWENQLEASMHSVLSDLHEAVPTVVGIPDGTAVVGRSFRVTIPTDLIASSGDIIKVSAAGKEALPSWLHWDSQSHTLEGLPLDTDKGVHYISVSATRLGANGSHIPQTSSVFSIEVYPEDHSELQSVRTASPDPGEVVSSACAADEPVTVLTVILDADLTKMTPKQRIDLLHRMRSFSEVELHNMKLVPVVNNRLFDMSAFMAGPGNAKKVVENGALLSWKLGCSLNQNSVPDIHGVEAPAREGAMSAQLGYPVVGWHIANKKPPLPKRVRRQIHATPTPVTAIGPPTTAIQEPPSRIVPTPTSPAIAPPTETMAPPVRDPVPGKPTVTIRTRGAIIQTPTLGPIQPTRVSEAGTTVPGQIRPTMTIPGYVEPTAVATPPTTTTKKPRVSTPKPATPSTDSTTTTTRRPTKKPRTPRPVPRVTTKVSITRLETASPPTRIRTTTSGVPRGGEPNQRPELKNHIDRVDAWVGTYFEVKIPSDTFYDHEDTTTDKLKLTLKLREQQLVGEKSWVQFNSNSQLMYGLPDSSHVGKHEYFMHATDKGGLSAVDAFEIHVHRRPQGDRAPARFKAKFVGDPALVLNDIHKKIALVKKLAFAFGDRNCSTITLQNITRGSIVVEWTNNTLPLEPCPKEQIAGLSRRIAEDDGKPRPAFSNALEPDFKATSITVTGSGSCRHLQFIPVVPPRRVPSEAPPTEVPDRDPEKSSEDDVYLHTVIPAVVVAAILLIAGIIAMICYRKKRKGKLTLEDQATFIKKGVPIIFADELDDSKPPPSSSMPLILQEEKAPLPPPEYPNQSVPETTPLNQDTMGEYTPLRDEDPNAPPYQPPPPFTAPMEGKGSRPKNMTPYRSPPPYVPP

[3] = target: B1; experiment: western blot (FIG. 5A)
[4] = target: T3, human recombinant AGR2 (rAGR2) (ab64013, AbCam) (human, UniProt O95994 21-175, limits assumed); experiment: western blot (FIG. 5A)
T3 construct: also called extracellular AGR2
T3 sequence: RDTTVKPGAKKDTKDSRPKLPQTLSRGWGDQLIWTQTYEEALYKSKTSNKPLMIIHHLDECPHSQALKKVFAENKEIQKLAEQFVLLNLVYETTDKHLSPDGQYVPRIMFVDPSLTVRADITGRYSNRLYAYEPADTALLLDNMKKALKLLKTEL

[5] = target: T4, AGR2 antigenic peptide (CIHHLDESPHSQALKKVFAENKEIQKLAEQ; SEQ ID NO: 3) (human); experiment: ELISA, antigenic peptide (0.5 ug) coated, probed with purified Ab (FIG. 11C)
T4 peptide: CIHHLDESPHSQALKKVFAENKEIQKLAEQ
Description: (§1) FIGS. 11A-D. Monoclonal antibodies developed bind respectively to AGR2 and C4.4A proteins and blocked their functions. From the endogenous lysate (SU86.86/Panc-1), AGR2 (18 kD) and C4.4A (50 kD) were identified by a panel of mAbs. […] Extra bands identified with the endogenous protein were re-confirmed with the recombinant protein. For apoptosis studies, AsPC-1 cells were treated without or with Gem (0.5 μM) and rAGR2 (100 nM) and with purified (A) AGR2 and (B) C4.4A Abs (1 μM). Commercially available Abs served as control. […] Horizontal line represents median apoptotic value. Data shown are mean±SE for 3 experiments (*p<0.05). (C,D) Binding assays were conducted with purified (C) AGR2 and (D) C4.4A Abs as selected from the apoptosis assay as having high blocking efficiency. ELISA assays were conducted by coating antigenic peptide (0.5 μg) and probed with respective purified Abs. Data shown are mean±SE for 3 experiments (*p <0.05). Based on high specificity and binding, clone 28B for AGR2 and 1A for C4.4A were selected. Purified Abs were also run on 4-20% gradient gel to check for the presence of heavy (50 kD) and light chains (25 kD).

[6] = target: T1, C4.4A (LYPD3), endogenous protein of …; experiment: western blot (FIG. 5A)
[7] = target: T5, C4.4A antigenic peptide (CPVRPTSTTKPMPAPTSQTPRQGVEHEASRDEEPRL; SEQ ID NO: 4) (human); experiment: ELISA, antigenic peptide (0.5 ug) coated, probed with purified Ab (FIG. 11D)
T5 peptide: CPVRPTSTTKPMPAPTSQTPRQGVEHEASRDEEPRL
Description: as §1

Binder: B1
binding result [1]: binds | binding result [2]: no binding

binding result [3]: binds | binding result [4]: binds | binding result [5]: binds
B2: 163-28B-1 monoclonal antibody (antibody, V domains shown)
VH: QIQLVQSGPELKKPGETVKISCKASGYTFTNYGMNWVKQAPGKGLKWMGWINTDTGKPTYTEEFKGRFAFSLATSASTAYLQINNLRNEDTATYFCGRVTADSMDYWGQGTSVTVSS
VL: DVVMTQTPLSLPVSLGDQASISCRSSQSLVHSNGNIYLHWFLQKPGQSPKLLIYKVSNRFSGVPDRFSGSGSGTDFTLKISRVEAEDLGVYFCSQSTHVPLTFGAGTKLELK
notes: also called AGR2 mAb; clone 28B

binding result [6]: binds | binding result [7]: binds
B3: 162-1A-1 monoclonal antibody (antibody, V domains shown)
VH: EVMLVESGGGLVKPGGSLKLSCAASGFTFSSYTMSWVRQTPEKRLEWVASISSGGGNTYYADSVKGRFTMSRDNAKNNLYLQMSSLRSEDTALYYCARSYYYGISYDTYWGQGTLVTVSA
VL: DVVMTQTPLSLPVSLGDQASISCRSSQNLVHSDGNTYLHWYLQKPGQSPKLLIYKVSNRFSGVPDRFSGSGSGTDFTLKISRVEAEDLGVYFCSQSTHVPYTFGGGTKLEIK
notes: also called C4.4A mAb; clone 1A
